{
  "source": "patent US20260055430",
  "about": "“[…] WITH ALTERED […] ACTIVITY” (Flagship Pioneering Innovations VI, LLC, published 2026)",
  "molecules": {"B1": {"name": "1221 attP (dsDNA)", "DNA 1": "GTTTAGTATCTCGTTATCTCTCGTTGGAGGGAGAAGAAACGGGATACCAAAA", "DNA 2": "TTTTGGTATCCCGTTTCTTCTCCCTCCAACGAGAGATAACGAGATACTAAAC"}, "B2": {"name": "165 attP (dsDNA)", "DNA 1": "TAGTTTCCAATGTTACAGGAACTGCTGGCAGAATCCAACACATTGGAAGTCG", "DNA 2": "CGACTTCCAATGTGTTGGATTCTGCCAGCAGTTCCTGTAACATTGGAAACTA"}, "B3": {"name": "27 attP (dsDNA)", "DNA 1": "GGTGCTGGGTTGTTGTCTCTGGACAGTGATCCATGGGAAACTACTCAGCACC", "DNA 2": "GGTGCTGAGTAGTTTCCCATGGATCACTGTCCAGAGACAACAACCCAGCACC"}},
  "key": {"[1]": {"test_system": "Int29/Int105 (Integrase 477)", "assay": "cell_activity", "details": "Int29; same accession as Int105 gave 0.77"}, "[2]": {"test_system": "Int22 (Integrase 1207)", "assay": "cell_activity", "details": "~500 bp region template"}, "[3]": {"test_system": "Int106 (Integrase 1223)", "assay": "cell_activity", "details": "~500 bp region template"}, "[4]": {"test_system": "Int104 (Integrase 1222)", "assay": "cell_activity", "details": "~500 bp region template"}, "[5]": {"test_system": "Int30 (Integrase 436)", "assay": "cell_activity", "details": "~500 bp region template"}, "[6]": {"test_system": "Int171 (Integrase 450)", "assay": "cell_activity", "details": "~500 bp region template"}, "[7]": {"target": "T1, Int94 (Integrase 1219) (UniProt A7GVM1)", "T1 sequence": "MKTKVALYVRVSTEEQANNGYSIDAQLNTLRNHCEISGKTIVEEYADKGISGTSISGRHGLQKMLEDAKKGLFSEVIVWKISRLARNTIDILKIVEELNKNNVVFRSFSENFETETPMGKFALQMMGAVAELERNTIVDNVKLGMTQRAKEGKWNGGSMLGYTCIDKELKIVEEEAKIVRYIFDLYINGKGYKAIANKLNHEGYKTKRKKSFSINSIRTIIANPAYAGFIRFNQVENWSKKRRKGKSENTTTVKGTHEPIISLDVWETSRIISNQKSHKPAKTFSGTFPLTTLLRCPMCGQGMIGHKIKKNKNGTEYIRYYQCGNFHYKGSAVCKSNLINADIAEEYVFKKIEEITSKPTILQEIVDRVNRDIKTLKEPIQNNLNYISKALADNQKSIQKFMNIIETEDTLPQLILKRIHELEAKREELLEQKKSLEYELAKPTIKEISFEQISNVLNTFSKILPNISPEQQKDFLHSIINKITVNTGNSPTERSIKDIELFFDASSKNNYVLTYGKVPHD", "assay": "cell_activity", "details": "~500 bp region template"}, "[8]": {"test_system": "Int182 (Integrase 1227)", "assay": "cell_activity", "details": "~500 bp region template"}, "[9]": {"test_system": "Int17 (Integrase 1206)", "assay": "cell_activity", "details": "~500 bp region template"}, "[10]": {"test_system": "Int138 (Integrase 1116)", "assay": "cell_activity", "details": "HEK293T, template with ~500 bp region containing attP; attP from Table 2"}, "[11]": {"target": "T2, Int103 (Integrase 1221) (UniProt Q928V6 Q928V6:1-452)", "T2 sequence": "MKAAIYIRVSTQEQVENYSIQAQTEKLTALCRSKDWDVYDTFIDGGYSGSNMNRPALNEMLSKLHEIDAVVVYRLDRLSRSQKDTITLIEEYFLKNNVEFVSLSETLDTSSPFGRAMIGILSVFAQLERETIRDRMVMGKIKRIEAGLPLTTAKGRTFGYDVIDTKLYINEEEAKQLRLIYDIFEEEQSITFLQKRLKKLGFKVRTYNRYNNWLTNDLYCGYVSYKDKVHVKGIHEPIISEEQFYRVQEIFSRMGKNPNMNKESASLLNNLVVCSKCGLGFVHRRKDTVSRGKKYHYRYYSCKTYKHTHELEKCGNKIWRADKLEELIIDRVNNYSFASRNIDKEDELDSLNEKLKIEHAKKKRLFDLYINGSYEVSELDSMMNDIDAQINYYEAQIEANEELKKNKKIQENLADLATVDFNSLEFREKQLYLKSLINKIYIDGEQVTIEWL", "assay": "cell_activity; ~500 bp region template"}, "[12]": {"target": "T3, Int192 (Integrase 165) (UniProt C9DC17 C9DC17:1-507)", "T3 sequence": "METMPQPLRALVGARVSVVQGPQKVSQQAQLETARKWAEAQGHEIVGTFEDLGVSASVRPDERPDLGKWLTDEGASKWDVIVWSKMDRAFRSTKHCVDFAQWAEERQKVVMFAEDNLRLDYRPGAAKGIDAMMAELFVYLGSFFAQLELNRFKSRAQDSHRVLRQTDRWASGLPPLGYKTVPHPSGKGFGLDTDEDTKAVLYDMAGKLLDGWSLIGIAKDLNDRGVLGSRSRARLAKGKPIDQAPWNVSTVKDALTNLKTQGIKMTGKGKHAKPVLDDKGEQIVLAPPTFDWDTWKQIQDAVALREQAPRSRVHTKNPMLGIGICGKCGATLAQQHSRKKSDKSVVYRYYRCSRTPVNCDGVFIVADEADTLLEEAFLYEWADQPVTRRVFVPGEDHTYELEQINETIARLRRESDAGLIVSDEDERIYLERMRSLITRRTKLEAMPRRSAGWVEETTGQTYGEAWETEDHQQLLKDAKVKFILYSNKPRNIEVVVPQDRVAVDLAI", "assay": "cell_activity; ~500 bp region template"}, "[13]": {"target": "T4, Int60 (Integrase 27) (UniProt Q858X3 Q858X3:1-594)", "T4 sequence": "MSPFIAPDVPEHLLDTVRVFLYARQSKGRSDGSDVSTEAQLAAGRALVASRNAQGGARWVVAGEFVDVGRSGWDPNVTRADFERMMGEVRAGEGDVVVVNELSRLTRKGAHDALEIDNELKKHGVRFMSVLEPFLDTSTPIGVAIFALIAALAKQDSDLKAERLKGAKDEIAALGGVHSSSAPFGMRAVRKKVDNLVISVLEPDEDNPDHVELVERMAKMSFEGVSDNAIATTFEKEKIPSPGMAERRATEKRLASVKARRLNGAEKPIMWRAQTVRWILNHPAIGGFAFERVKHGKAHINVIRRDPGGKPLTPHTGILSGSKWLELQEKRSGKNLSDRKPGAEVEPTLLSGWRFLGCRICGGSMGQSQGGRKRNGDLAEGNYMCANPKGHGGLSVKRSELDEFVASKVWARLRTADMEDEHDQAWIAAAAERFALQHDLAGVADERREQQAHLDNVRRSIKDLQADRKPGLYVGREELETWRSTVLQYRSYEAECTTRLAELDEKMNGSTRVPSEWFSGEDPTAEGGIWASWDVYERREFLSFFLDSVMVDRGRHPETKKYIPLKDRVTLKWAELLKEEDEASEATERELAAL", "assay": "cell_activity; ~500 bp region template"}},
  "data": [
    {"molecule": "TTCCTCGTTTTCTCTCGTTGGAAGAAGAAGAAACGAGAAA (double strand) [477 attP]", "values": [
      {"measurement": "activity", "setting": "[1]", "value": 0.91, "unit": "% GFP+"}
    ]},
    {"molecule": "AAAAGAATCCAAATTATCGTACTTTAACATAGTGAATACTGTCCATCATGTATAAAAGTACG (double strand) [1207 attP]", "values": [
      {"measurement": "activity", "setting": "[2]", "value": 0.16, "unit": "% GFP+"}
    ]},
    {"molecule": "CAATGAAAAACTAGGCATGTAGAAGTTGTTTGT (double strand) [1223 attP]", "values": [
      {"measurement": "activity", "setting": "[3]", "value": 1.77, "unit": "% GFP+"}
    ]},
    {"molecule": "TTCCTCGTTTTCTCTCGTTGGACGGAAACGAATCGAGAAA (double strand) [1222 attP]", "values": [
      {"measurement": "activity", "setting": "[4]", "value": 0.58, "unit": "% GFP+"}
    ]},
    {"molecule": "ATTTTAGGTATATGATTTTGTTTATTAGTGTAAATAACACTATGTACCTAAAAT (double strand) [436 attP]", "values": [
      {"measurement": "activity", "setting": "[5]", "value": 10.1, "unit": "% GFP+"}
    ]},
    {"molecule": "TATTAGTATAGAAGAAAGCTCTCAGCACACGTGGAGTGTGTTGCTCTCTGCTCGTAAAGCCT (double strand) [450 attP]", "values": [
      {"measurement": "activity", "setting": "[6]", "value": 0.16, "unit": "% GFP+"}
    ]},
    {"molecule": "CAATAACGGTTGTATTTGTAGAACTTGACCAGTTGTTTTAGTAACATAAATACAACTCCGAATA (double strand) [1219 attP]", "values": [
      {"measurement": "activity", "setting": "[7]", "value": 0.23, "unit": "% GFP+"}
    ]},
    {"molecule": "AAATATAACCTGTGTATTGAAACAAGGTGCTGATAAAACCCTTTCATAAACACAAGTAAATA (double strand) [1227 attP]", "values": [
      {"measurement": "activity", "setting": "[8]", "value": 0.22, "unit": "% GFP+"}
    ]},
    {"molecule": "GTTAGGTGTATATCATACCTAACGCAATTCATTACATCACATATGTTATACACCTACTTTAA (double strand) [1206 attP]", "values": [
      {"measurement": "activity", "setting": "[9]", "value": 0.123, "unit": "% GFP+"}
    ]},
    {"molecule": "TGTAGTAAGTATCTTAATATACAGCTTTATCTGTTTTTTAAGATACTTACTACTTT (double strand) [1116 attP]", "values": [
      {"measurement": "activity", "setting": "[10]", "value": 27.6, "unit": "% GFP+"}
    ]},
    {"molecule": "B1", "values": [
      {"measurement": "activity", "setting": "[11]", "value": 0.22, "unit": "% GFP+"}
    ]},
    {"molecule": "B2", "values": [
      {"measurement": "activity", "setting": "[12]", "value": 0.57, "unit": "% GFP+"}
    ]},
    {"molecule": "B3", "values": [
      {"measurement": "activity", "setting": "[13]", "value": 0.17, "unit": "% GFP+"}
    ]}
  ]
}
